# Publication PMC7763554, “The Two-Component System CopRS Maintains Subfemtomolar Levels of Free Copper in the Periplasm of Pseudomonas aeruginosa Using a Phosphatase-Based Mechanism” (mSphere, 2020)
# B1: His-tagged CopS(34-151), periplasmic copper binding loop (sensor domain) of Pseudomonas aeruginosa CopS (domain or fragment, UniProt Q9I033 34-151, looked up)
# chain: FSRAIDEHFVELDHMAMSAKLAVFRDELRGLGSEQQMRRREAELLRELARHPDLGLRLNGPDGNLWFERLPQPAHPGLPANRELGAPLEPGNDASPRLTVILDISHHQHFLQRMRQLI
# notes: CopS, sensor histidine kinase of the two-component system CopRS, Pseudomonas aeruginosa PAO1; periplasmic sensor domain, residues 34-151, amplified from genomic DNA; The His6 tag is joined by a TEV cleavage site, and the tag was not cleaved; The expected monomer mass is printed as 19 kDa, which is more than residues 34-151 plus the tag would give, so the pBAD-topo vector may add residues …
# Biological target: the molecule itself
# Assay: SDS-PAGE; 10 ug of purified protein on 8 to 16% gradient SDS-PAGE, Coomassie blue G250; monomer and dimer bands with expected masses of 19 and 38 kDa
protein,measurement,value
B1,stoichiometry N,2
